The record followed here is patent US20230151105A1.

In experiment [1] the target is human OX40 expressed on the cell surface (human) (UniProt P43489). In words: cell-based or functional assay.
Experiment [2] has as its target recombinant OX40-Fc protein (R & D, Cat 3388-OX) (human) (UniProt P43489). In words: blocking ELISA: OX40-Fc coated, antibody titrated, competitor OX40L at 50 ng/ml. Background: An ELISA detects its analyte on a solid surface through an enzyme-linked reagent.

Chain of recombinant OX40-Fc protein (R & D, Cat 3388-OX) (human) (P43489 29-214): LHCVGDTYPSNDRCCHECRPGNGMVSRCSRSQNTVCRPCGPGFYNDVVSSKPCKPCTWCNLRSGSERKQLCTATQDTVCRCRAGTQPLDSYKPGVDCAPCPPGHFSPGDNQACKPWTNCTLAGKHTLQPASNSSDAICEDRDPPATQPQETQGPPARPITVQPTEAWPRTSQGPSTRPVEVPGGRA
Chain of human OX40 expressed on the cell surface (human) (P43489 29-277): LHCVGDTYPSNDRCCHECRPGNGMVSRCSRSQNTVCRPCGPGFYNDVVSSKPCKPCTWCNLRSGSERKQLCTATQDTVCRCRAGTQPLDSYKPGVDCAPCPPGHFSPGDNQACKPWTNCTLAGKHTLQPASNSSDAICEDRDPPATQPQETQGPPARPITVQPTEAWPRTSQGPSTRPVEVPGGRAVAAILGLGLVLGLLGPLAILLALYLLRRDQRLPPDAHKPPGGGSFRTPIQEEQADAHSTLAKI

B1: GBR830 (antibody, from another filing, V domains shown)
VH: QVTLKESGPALVKPTQTLTLTCSFSGFSLSTSGMGVGWIRQPPGKALEWIAHIWWDDDKYYNTALKTRLTISKDTSKNQVVLTMTNMDPVDTATYYCARIDWDGFAYWGQGTLVTVSS
VL: EIVLTQSPATLSLSPGERATLSCRASSSVSYMHWYQQKPGQAPRPWIYATSNRATGIPARFSGSGSGTDYTLTISSLEPEDFAVYYCQQWSSNPWTFGQGTKVEIKR
B1 returned a blocking of OX40L-mediated T cell activation, IFNγ secretion, IC50 in experiment [1] of 1100 pM. Also, in experiment [2], the IC50 (usually the concentration that gives 50% inhibition) was 300 pM and the maximum inhibition rate was 50%.
